Data as given in the RNAGym collection of RNA variant scans (doi:10.1101/gr.219683.116).

B1: mRNA-splicing (parent)
chain: AGUUGCUGCUGGGAGCUCCAGCACAGUGAAAUGGACAGAAGGGCAGAGCAA

Variants of: B1
Assay: exon inclusion enrichment index; higher = more inclusion; WT1 exon 5 minigene, HEK293

Variant | exon inclusion enrichment index
AGUUACCACCGGGAGCUCCAGAACAGUGAAAUGGACAGAAGGGCAGAGCAA | 2.32
AGUUACCACCGGGAGCUCCAGGACAGUGAAAUGGACAGAAGGGCAGAGCAA | 3.37
AGUUACCACCGGGAGCUCCAGUACAGUGAAAUGGACAGAAGGGCAGAGCAA | 2.11
AGUUACCACCGGGAGCUUAAGCACAGUGAAAUGGACAGAAGGGCAGAGCAA | 0.212
AGUUACCACCGGGAGCUUUAGCACAGUGAAAUGGACAGAAGGGCAGAGCAA | 0.0421
AGUUACCACCGGGAGCUUGAGCACAGUGAAAUGGACAGAAGGGCAGAGCAA | 0.804
AGUUACCACCGGGAGCUCCAGCACAGUGAAAUGGACAGGCGGGCAGAGCAA | 2.53
AGUUACCACCGGGAGCUCCAGCACAGUGAAAUGGACAGGGGGGCAGAGCAA | 0.26
AGUUACCACCGGGAGCUCCAGCACAGUGAAAUGGACAGGUGGGCAGAGCAA | 0.283
AGUUACCACCGGGAGCUCCAGCACAGUGAAAUGGACAGAAGGGCAGUCCAA | 1.6
AGUUACCACCGGGAGCUCCAGCACAGUGAAAUGGACAGAAGGGCAGUACAA | 1.85
AGUUACCACCGGGAGCUCCAGCACAGUGAAAUGGACAGAAGGGCAGUUCAA | 1.85
AGUUACCACCGGGAGCUCCAGCACAGUGAAAUGGACUCAAGGGCAGAGCAA | 1.52
AGUUACCACCGGGAGCUCCAGCACAGUGAAAUGGACUAAAGGGCAGAGCAA | 0.876
AGUUACCACCGGGAGCUCCAGCACAGUGAAAUGGACUUAAGGGCAGAGCAA | 0.601
AGUUACCACCGGGAGCUCCAGCACAGUGAAAUGGACAGACCGGCAGAGCAA | 3.47
AGUUACCACCGGGAGCUCCAGCACAGUGAAAUGGACAGACUGGCAGAGCAA | 1.28
AGUUACCACCGGGAGCUCCAGCACAGUGAAAUGGACAGACAGGCAGAGCAA | 0.979
AGUUACCACCGGGAGGUCCAGCACAGUGAAAUGGACAGAAGGGCAGAGCAA | 1.39
AGUUACCACCGGGAGAUCCAGCACAGUGAAAUGGACAGAAGGGCAGAGCAA | 2.46
AGUUACCACCGGGAGUUCCAGCACAGUGAAAUGGACAGAAGGGCAGAGCAA | 2.53
AGUUACCACCGGGAGUGCCAGCACAGUGAAAUGGACAGAAGGGCAGAGCAA | 0.815
AGUUACCACCGGGAGUACCAGCACAGUGAAAUGGACAGAAGGGCAGAGCAA | 1.74
AGUUACCACCGGGAGUCCCAGCACAGUGAAAUGGACAGAAGGGCAGAGCAA | 1.33
AGUUACCACCGGGAGCUCCAGCACAGUGAAAUGGACAGAAGGGCUUAGCAA | 0.84
AGUUACCACCGGGAGCUCCAGCACAGUGAAAUGGACAGAAGGGCUCAGCAA | 1.55

Variant | exon inclusion enrichment index
AGUUACCACCGGGAGCUCCAGCACAGUGAAAUGGACAGAAGGGCUAAGCAA | 1.75
AGUUACCACCGGGAGCUCCAGCACAGUGAAAUGGACAGCAGGGCAGAGCAA | 0.541
AGUUACCACCGGGAGCUCCAGCACAGUGAAAUGGACAGGAGGGCAGAGCAA | 1.33
AGUUACCACCGGGAGCUCCAGCACAGUGAAAUGGACAGUAGGGCAGAGCAA | 0.113
AGUUACCACCGGGAGCUCCAGACCAGUGAAAUGGACAGAAGGGCAGAGCAA | 3.53
AGUUACCACCGGGAGCUCCAGAGCAGUGAAAUGGACAGAAGGGCAGAGCAA | 2.59
AGUUACCACCGGGAGCUCCAGAUCAGUGAAAUGGACAGAAGGGCAGAGCAA | 2.17
AGUUACCACCGGGAGCUCCAGCACAGUGAAAUGGACAGAAGGGCCGAGCAA | 2.28
AGUUACCACCGGGAGCUCCAGCACAGUGAAAUGGACAGAAGGGCGGAGCAA | 3.76
AGUUACCACCGGGAGCUCCAGCACAGUGAAAUGGACAGAAGGGCUGAGCAA | 2.8
AGUUACCACCGGGAGCUCCAGCACAGUGAAAUGGACAGAAGGGCAGCACAA | 1.74
AGUUACCACCGGGAGCUCCAGCACAGUGAAAUGGACAGAAGGGCAGCCCAA | 2.06
AGUUACCACCGGGAGCUCCAGCACAGUGAAAUGGACAGAAGGGCAGCUCAA | 2.34
AGUUACCACCGGGAGCUCCAGCACAGUGAAAUGGACGCAAGGGCAGAGCAA | 2.62
AGUUACCACCGGGAGCUCCAGCACAGUGAAAUGGACGUAAGGGCAGAGCAA | 0.991
AGUUACCACCGGGAGCUCCAGCACAGUGAAAUGGACAGAAGGGCCCAGCAA | 1.61
AGUUACCACCGGGAGCUCCAGCACAGUGAAAUGGACAGAAGGGCCUAGCAA | 1.12
AGUUACCACCGGGAGCUCCAGCACAGUGAAAUGGACAGAAGGGCCAAGCAA | 1.42
AGUUACCACCGGGAGCUCCAGCACAGUGAAAUGGACAGACGGGCAGAGCAA | 2.82
AGUUACCACCGGGAGCUCCAGCACAGUGAAAUGGACAGAGGGGCAGAGCAA | 1.93
AGUUACCACCGGGAGCUCCAGCACAGUGAAAUGGACAGAUGGGCAGAGCAA | 1.97
AGUUACCACCGGGAGCUCGUGCACAGUGAAAUGGACAGAAGGGCAGAGCAA | 2.09
AGUUACCACCGGGAGCUCGGGCACAGUGAAAUGGACAGAAGGGCAGAGCAA | 1.34
AGUUACCACCGGGAGCUCGCGCACAGUGAAAUGGACAGAAGGGCAGAGCAA | 2.4
AGUUACCACCGGGAGCUACAGCACAGUGAAAUGGACAGAAGGGCAGAGCAA | 1.35
AGUUACCACCGGGAGCUUCAGCACAGUGAAAUGGACAGAAGGGCAGAGCAA | 1.67

Variant | exon inclusion enrichment index
AGUUACCACCGGGAGCUGCAGCACAGUGAAAUGGACAGAAGGGCAGAGCAA | 2.35
AGUUACCACCGGGAGCUCAGGCACAGUGAAAUGGACAGAAGGGCAGAGCAA | 0.441
AGUUACCACCGGGAGCUCAUGCACAGUGAAAUGGACAGAAGGGCAGAGCAA | 0.815
AGUUACCACCGGGAGCUCACGCACAGUGAAAUGGACAGAAGGGCAGAGCAA | 1.38
AGUUACCACCGGGAGCUCCAGCACAGUGAAAUGGACAGAAGGGCAGGGCAA | 0.395
AGUUACCACCGGGAGCUCCAGCACAGUGAAAUGGACAGAAGGGCAGUGCAA | 2
AGUUACCACCGGGAGCUCCAGCACAGUGAAAUGGACAGAAGGGCAGCGCAA | 2.83
AGUUACCACCGGGAGGGCCAGCACAGUGAAAUGGACAGAAGGGCAGAGCAA | 0.238
AGUUACCACCGGGAGGACCAGCACAGUGAAAUGGACAGAAGGGCAGAGCAA | 2.77
AGUUACCACCGGGAGGCCCAGCACAGUGAAAUGGACAGAAGGGCAGAGCAA | 1.06
AGUUACCACCGGGAGCUCUGGCACAGUGAAAUGGACAGAAGGGCAGAGCAA | 0.888
AGUUACCACCGGGAGCUCUUGCACAGUGAAAUGGACAGAAGGGCAGAGCAA | 0.734
AGUUACCACCGGGAGCUCUCGCACAGUGAAAUGGACAGAAGGGCAGAGCAA | 1.64
AGUUACCACCGGGAGCUCCAGUGCAGUGAAAUGGACAGAAGGGCAGAGCAA | 2.69
AGUUACCACCGGGAGCUCCAGUUCAGUGAAAUGGACAGAAGGGCAGAGCAA | 1.53
AGUUACCACCGGGAGCUCCAGUCCAGUGAAAUGGACAGAAGGGCAGAGCAA | 1.42
AGUUACCACCGGGAGCUCCAGGUCAGUGAAAUGGACAGAAGGGCAGAGCAA | 0.522
AGUUACCACCGGGAGCUCCAGGGCAGUGAAAUGGACAGAAGGGCAGAGCAA | 1.4
AGUUACCACCGGGAGCUCCAGGCCAGUGAAAUGGACAGAAGGGCAGAGCAA | 1.24
AGUUACCACCGGGAGCUCCAGCACAGUGAAAUGGACUGAAGGGCAGAGCAA | 1.97
AGUUACCACCGGGAGCUCCAGCACAGUGAAAUGGACAGCCGGGCAGAGCAA | 3.03
AGUUACCACCGGGAGCUCCAGCACAGUGAAAUGGACAGCUGGGCAGAGCAA | 1.28
AGUUACCACCGGGAGCUCCAGCACAGUGAAAUGGACAGCGGGGCAGAGCAA | 2.18
AGUUACCACCGGGAGCUCCAGCACAGUGAAAUGGACAGAAGGGCGUAGCAA | 2.26
AGUUACCACCGGGAGCUCCAGCACAGUGAAAUGGACAGAAGGGCGAAGCAA | 4.51
AGUUACCACCGGGAGCUCCAGCACAGUGAAAUGGACAGAAGGGCGCAGCAA | 3.06

Variant | exon inclusion enrichment index
AGUUACCACCGGGAGCUGGAGCACAGUGAAAUGGACAGAAGGGCAGAGCAA | 2.62
AGUUACCACCGGGAGCUGAAGCACAGUGAAAUGGACAGAAGGGCAGAGCAA | 2.92
AGUUACCACCGGGAGCUGUAGCACAGUGAAAUGGACAGAAGGGCAGAGCAA | 0.528
AGUUACCACCGGGAGCUAUAGCACAGUGAAAUGGACAGAAGGGCAGAGCAA | 0.0739
AGUUACCACCGGGAGCUAGAGCACAGUGAAAUGGACAGAAGGGCAGAGCAA | 0.297
AGUUACCACCGGGAGCUAAAGCACAGUGAAAUGGACAGAAGGGCAGAGCAA | 0.451
AGUUACCACCGGGAGCUCGAGCACAGUGAAAUGGACAGAAGGGCAGAGCAA | 1.88
AGUUACCACCGGGAGCUCUAGCACAGUGAAAUGGACAGAAGGGCAGAGCAA | 0.131
AGUUACCACCGGGAGCUCAAGCACAGUGAAAUGGACAGAAGGGCAGAGCAA | 1.39
AGUUACCACCGGGAGCUCCAGCACAGUGAAAUGGACAGUCGGGCAGAGCAA | 2.41
AGUUACCACCGGGAGCUCCAGCACAGUGAAAUGGACAGUGGGGCAGAGCAA | 0.575
AGUUACCACCGGGAGCUCCAGCACAGUGAAAUGGACAGUUGGGCAGAGCAA | 1.02
AGUUACCACCGGGAGAGCCAGCACAGUGAAAUGGACAGAAGGGCAGAGCAA | 1.33
AGUUACCACCGGGAGACCCAGCACAGUGAAAUGGACAGAAGGGCAGAGCAA | 1.83
AGUUACCACCGGGAGAACCAGCACAGUGAAAUGGACAGAAGGGCAGAGCAA | 2.05
AGUUACCACCGGGAGCUCCAGCACAGUGAAAUGGACAGAUUGGCAGAGCAA | 1.26
AGUUACCACCGGGAGCUCCAGCACAGUGAAAUGGACAGAUAGGCAGAGCAA | 0.108
AGUUACCACCGGGAGCUCCAGCACAGUGAAAUGGACAGAUCGGCAGAGCAA | 3.14
AGUUACCACCGGGAGCUCCAGCACAGUGAAAUGGACAGAAGGGCAGGCCAA | 1.13
AGUUACCACCGGGAGCUCCAGCACAGUGAAAUGGACAGAAGGGCAGGUCAA | 0.325
AGUUACCACCGGGAGCUCCAGCACAGUGAAAUGGACAGAAGGGCAGGACAA | 1.37
AGUUACCACCGGGAGCUCCAGCACAGUGAAAUGGACAGAGCGGCAGAGCAA | 3.76
AGUUACCACCGGGAGCUCCAGCACAGUGAAAUGGACAGAGUGGCAGAGCAA | 1.79
AGUUACCACCGGGAGCUCCAGCACAGUGAAAUGGACAGAGAGGCAGAGCAA | 1.12
